Test results taken from patent EP4524159A1, “ANTIBODY AND USE THEREOF” (Sichuan Huiyu Pharmaceutical Co., Ltd., priority 2022, dated 2023).
Substitutions are numbered along the chain they refer to. Square brackets hold non-standard residues; d marks the D form. Peptide text beside a SMILES is read from it. * marks the point of attachment. Dolaproine = CO[C@@H]([C@@H]1CCCN1)[C@@H](C)C(=O)O; Dil = CC[C@H](C)[C@H](NC)[C@@H](CC(=O)O)OC; X1 = C[C@@H](N*)[C@@H](O)c1ccccc1; NMeV = CN[C@H](C(=O)O)C(C)C

T1: HuCDCP1-B (human) (UniProt Q9H5V8)
T1 sequence (looked up): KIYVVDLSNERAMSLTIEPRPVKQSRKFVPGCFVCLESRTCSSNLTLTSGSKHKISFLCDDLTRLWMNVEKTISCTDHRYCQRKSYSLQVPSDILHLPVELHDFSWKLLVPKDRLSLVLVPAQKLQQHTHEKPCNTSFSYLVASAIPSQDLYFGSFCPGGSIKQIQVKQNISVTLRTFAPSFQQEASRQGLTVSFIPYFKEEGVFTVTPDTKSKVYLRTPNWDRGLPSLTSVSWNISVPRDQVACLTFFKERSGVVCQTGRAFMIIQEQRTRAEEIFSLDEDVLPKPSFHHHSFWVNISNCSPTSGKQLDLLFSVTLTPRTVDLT

B1: SB1 (antibody, V domains shown)
VH: QVQLQQSGPDLVRPGESVKISCKGSGYTFTDHAIHWVRQSHAKSLEWIGVISFSYDNTKYNQNFKGKATMTVDKSSNTAYMELARLTSEDSAIYYCARDCYGSNRGYFDYWGQGTTLTVSS
VL: DIRMTQSPSSMYASLGERVTITCKASQDINRFLSWFLQRPGKAPKTLIYRANNLVEGVPSRFSGSGSGQDYSLIISNLEYEDMGIYYCLQYDEFPRTFGGGTKLEIK
B2: SB7 (antibody, V domains shown)
VH: QVQLQQSGPELVSPGESVKISCKGSGYTFTDYAVHWVKQSHSKSLEWIGVKSVYYGITKYSQNFKDKATMTVDKSSSTAYMELARLTSEDSAIYYCARDSYGSSRGYFDYWGQGTTLTVSS
VL: DIKMTQSPSSIYVSPGERVTITCKASQDINSFLSWFQQKPGKSPKTLIYRANRLVDGVPSRFSGSGSGQDYSLTISSLEYEDMGIYYCLQYDEFPRTFGGGTKLEIK
B3: 6A7-MMAE (conjugate)
VH: EVQLKESGAELVRPGASVKVSCKASGYSFTSYWMNWVKQRPGQGLEWIGMIHPSDSETKLNQKFRDRASLTVDKSSSTAYMQLSSPTSEDSAVYYCTINYESFYYAMDYWGQGTTVTVSS
VL: DIVMTQSPASLAVSLGQRATISCRASKSVSTSGYSYMHWYQQKPGQPPKLLLYLASNLESGVPARFSGSGSGADFTLNIHPVEEEDAATYYCLHSRELPYTFGGGTKLEIK
B4: 3C11-MMAE (conjugate)
VH: EVQLQQSGTVLARPGASVKMSCKASGYNFISYWLHWIKQRPGQGLEWIGGIYPGNTDTTYNQKFKGKAKVTAVTSATTAYMELSSLTNEDSAVYYCIRYDYDRGMDYWGQGTTVTVSS
VL: DIQMTQSPSSFSVSLGDRVTITCRASEDIYYRLAWYQQKPGNAPRLLISGATALETGVPSRFSGSGSGKDYTLSITSLQTEDVATYYCQHYWNIPWTFGGGTKLEIK
B5: 3B 12H5-MMAE (conjugate)
VH: EVQLQQSGTVLARPGASVKMSCKASGYSFTIYWVHWVKQRPGQGLEWIGAVYPGNDDTSYNQNFKGKAKLTAVTSATTAYMELSSLTIDDSAVYYCTRHTYDEVFDYWGQGTTVTVSS
VL: B4 VL with Q3V, F11L, R24K, A51G, A53N, T56A, V58I, T85I, I94T
B6: SB4 (antibody, V domains shown)
VH: QVQLQQSGAELVRPGTSVKISCKASGYTFTNYWLGWVKQRPGHGLEWIGDNYPGDNYRNFNEKFKGKATLTTDASSSTAYLQLSSLISEDSAVYFCTRSGGSRYYTMDYWGQGTSVTVSS
VL: DIVMTQAAFSNPVTLGTSASISCRSSRSLLHNNGITYLYWYLQKPGQSPQLLIYQMSNLASGVPDRFHSSGSGTDFTLSISRVEAEDVGVYYCAQNLDLPYTFGGGTKLEIK
B7: 10D2-MMAE (conjugate)
VH: EVQLQQSGPELKKPGETVKISCKASGYTFTDYSMHWVKQAPGKGLKWMGWINTETGQPTYADDFKGRFAFSLETSASSAYLQINNLKNEDTATYFCTRTFYYDYVGDYWGQGTTVTVSS
VL: DIVMTQSHKFMSTSVGDRVSITCKASQDVSTAVAWYRQKPGQSPKLLIYWASTRHTGVPDRLTGSGSGTDFALTINSVQAEDLALYYCQQHSSTPYTFGGGTKLEIK
B8: SB5 (antibody, V domains shown)
VH: QVQLRESGPGLVAPSQSLSITCTVSGFSLTDFGVNWVRQPPGKGLEWLGIIWANGRIEYNSALKSRLSISKDNSRSQVFLKLNSLQTDDTARYYCARDHDYDVEAMDYWGQGTSVTVSA
VL: QIVLTQSPAIKSASPGEKVTMTCSASSSVIYMHWYQQKSGSSPKRWIYDTSKLASGVPVRFSGSGSGTSYSLTISTMEAEDAATYYCQQWSSYPPTFGGGTKVEIK
B9: SB6 (antibody, V domains shown)
VH: QGQMQQSGAELVKPGASVKLSCKTSGFTFNSSYITWLKQKPGQSLEWIAWIFAGTGGTYYNEKFTDKAQLTVDTTSSTAYMQFSSLTTEDSAIYYCARHGLGYDYWGQGTTLTVSS
VL: SIVMTQTPKFLLVSAGDRVTITCKASQSVNTDVAWYQQKSGQSPKLLIYSASNRYTGVPDRFTGSGYGTDFTFTISTVQAEDLAVYFCQQDHSSPPWTFGGGTKLEIK
B10: 8E5-MMAE (conjugate)
VH: EVQLKESGPELKKPGETVKISCKASGYTLTDFSMHWLKQAPGKGLKWMGWINTETGAPTYADDFKGRFALSLDTSANTAYLQINNLKNEDTATYFCSRGRDYDPHFDYWGQGTTVTVSS
VL: EIVLTQSPATLSVTPGDRVSLSCRASQSISDFLHWYQQRSHESPRLLIKYASQSISGIPSRFGGSGSGSDFTLNINTVEPEDVGMYYCQSAHSFPYTFGGGTKLEIK
B11: G10F6-MMAE (conjugate)
VH: EVKLVESGPGILQPSQTLSLTCSFSGFSLSTSGMGVSWVRQPSGKGLEWLAHIYWDDDKRYNPSLKGRLTISKDTPRNQVFLEITSVDTTDTATYYCARVPGNWDEDAMDYWGQGTTVTVSS
VL: DIQMTQSPLSLPVSLGDQASISCRSSQNIVHTNGNTYLEWYLQKVGQSPKLLIYKVSNRFSGVPDRFSGSGSGTDFTLKISRVEAEDLGVYYCFQGSHVPYTFGGGTKLEIK

Tests used:
[1] = tested on: HCT116; test: In vitro killing by humanized antibody-vc-MMAE conjugate (CellTiter-Glo, 120 h); format: cell-based
Protocol: (§1) The colorectal cancer cells HCT116 and breast cancer cells HCC1806 were counted separately, adjusted to 3000 cells/well and plated in 96-well plates overnight. Conjugates were added at a final concentration of 200 nM to 0.000512 nM (a 5-fold dilution across 9 concentration points), totaling 200 µL, cultured at 37°C in a CO2 incubator for 120 h, half of the medium (100 µL) was discarded, and 100 µL of CellTiter-Glo Luminescent Cell Viability assay reagent (Promega, cat # G7570) was added to detect signal values on a BMG microplate reader. The inhibition activity of antibody on tumor cell growth was calculated by graphpad fitting based on the signal value and antibody concentration, and the results are shown in FIGS. 6a and 6b and Tables 19 and 20. Table 19 DAR value of anti-CDCP1 humanized antibody-vc-MMAE conjugate and its IC50 value for HCC1806

[2] = tested on: HCC1806; test: as above; format: cell-based
Protocol: as §1

[3] = tested on: MCF7; test: In vitro killing by chimeric antibody-vc-MMAE conjugate (CellTiter-Glo, 120 h); format: cell-based; details: MCF7 (120 h), cells that do not express CDCP1
Protocol: (§2) The specific steps were: Colorectal cancer cells HCT116, breast cancer cells MDA-MB-231, prostate cancer cells PC3, MCF7 cells were respectively counted, adjusted to 3000 cells/well, and plated onto 96-well plates overnight; Conjugates were added at a final concentration of 8 nM to 0.000512 nM (a 5-fold dilution across 7 concentration points), totaling 200 µL, cultured at 37 °C in a CO2 incubator for 120 h, half of the medium (100 µL) was discarded, and 100 µL of CellTiter-Glo Luminescent Cell Viability assay reagent (Promega, cat # G7570) was added to detect signal values on a BMG microplate reader. The inhibition activity of antibody on tumor cell growth was calculated by graphpad fitting based on the signal value and antibody concentration, and the results are shown in FIG. 5 and Table 15. Table 15 IC50 value of anti-CDCP1 chimeric antibody -vcMMAE conjugate on tumor cells

[4] = tested on: MDA-MB-231; test: as above; format: cell-based; details: MDA-MB-231 (120 h)
Protocol: as §2

[5] = tested on: HCT116; test: as above; format: cell-based
Protocol: as §2

[6] = tested on: PC3; test: as above; format: cell-based; details: PC3 (120 h)
Protocol: as §2, with “[…],” for “cultured at 37 °C in a CO2 incubator for 120 h,”

[7] = molecular target: HuCDCP1-C (human) (UniProt Q9H5V8); test: ELISA, HuCDCP1-C coated 2 ug/ml
[8] = Drug : antibody ratio (DAR) of antibody-vc-MMAE conjugates by hydrophobic HPLC; details: for DAR: chimeric antibody-vc-MMAE conjugates; for DAR2 (%): share of DAR2 species; for DAR4 (%): share of DAR4 species; for DAR6 (%): share of DAR6 species; for DAR8 (%): share of DAR8 species
Protocol: The specific operation was to reduce each antibody and the control antibody CD27H10 (27H10 antibody in WO2018112334A1) with a 2-fold molar amount of […] (TECP) at 4 °C for 1 hour. A 7-fold molar amount of vcMMAE was then added for ligation at 4-25 °C for 1 h, and then the reaction mixture was dialyzed against 1 × PBS pH 8.0 and filtered for sterilization. Drug : antibody ratio (DAR) was detected by hydrophobic kurtosis with HLPC, and the molecular coupling results are shown in Table 14. Table 14 DAR values of antibody-drug conjugates
The humanized antibodies 1CP-125, 1CP-117 and 1CP-152 were subjected to linking to form ADC, and the linking process was the same as in example 18. Table 18 DAR values of antibody-drug conjugates

[9] = molecular target: T1, HuCDCP1-B (human); test: ELISA, HuCDCP1-B coated 2 ug/ml
[10] = tested on: MCF7; test: In vitro killing by chimeric antibody-vc-MMAE conjugate (CellTiter-Glo, 120 h); format: cell-based; details: MCF7 (120 h), cells that do not express CDCP1; remark: listed apart in the source
Protocol: The inhibition activity of antibody on tumor cell growth was calculated by graphpad fitting based on the signal value and antibody concentration, and the results are shown in FIG. 5 and Table 15. Table 15 IC50 value of anti-CDCP1 chimeric antibody -vcMMAE conjugate on tumor cells

Molecule	ELISA [7]	DAR [8]	DAR2 (%) [8]	DAR4 (%) [8]	DAR6 (%) [8]	DAR8 (%) [8]	further results
CC[C@H](C)[C@@H]([C@@H](CC(=O)N1CCC[C@H]1[C@H](OC)[C@@H](C)C(=O)N[C@H](C)[C@@H](O)c1ccccc1)OC)N(C)C(=O)[C@@H](NC(=O)[C@@H](NC)C(C)C)C(C)C [MMAE] (H-[NMeV]V[Dil][Dolaproine]-X1)	–	–	–	–	–	–	IC50 [1]: 0.283 nM; IC50 [2]: 0.053 nM; IC50 [3]: 0.0777 nM; IC50 [4]: 0.168 nM; IC50 [5]: 0.108 nM; IC50 [6]: 0.00101 nM
B1	0.092 nM	–	–	–	–	–	–
B2	0.034 nM	–	–	–	–	–	–
B3	–	3.6	24.99%	38.25%	12.28%	5.30%	–
B4	–	3.48	33.89%	28.50%	8.28%	9.09%	–
B5	–	3.2	29.966%	37.81%	7.324%	1.741%	–
B6	0.071 nM	–	–	–	–	–	–
B7	–	3.5	34.10%	39.38%	10.24%	8.00%	–
B8	0.413 nM	–	–	–	–	–	ELISA [9]: 0.208 nM
B9	0.027 nM	–	–	–	–	–	–
B10	–	3.65	32.01%	37.12%	11.15%	–	IC50 [10]: ~200 nM
B11	–	3.6	32.59%	35.66%	12.02%	10.04%	IC50 [10]: > 200 nM
